Type: in vivo, human
Settings: mean of the five repeat experiments; subcutaneous; controller PK setting SLOW

For Insulin lispro, the “Inferred lispro PK t95%, Mean” value was 8.9 h and the “Inferred lispro PK tmax, Mean” value was 1.48 h.
